In patent US20080044815A1 (published 2008):

How the values were obtained:
Assay in all cases: forward yeast two-hybrid, β-galactosidase overlay assay
[1] = molecular target: T1, JNK1 point mutant Tyr-320-His, fused to the B42 activation domain (pJG4-5) (human, UniProt Q91Y86 1-384 (mouse entry))
T1 construct: Full-length JNK1 single point mutant; two-hybrid prey; also called Y320H; Y320→H320

[2] = molecular target: T2, JNK1 point mutant Leu-131-Arg, fused to the B42 activation domain (pJG4-5) (human, UniProt Q91Y86 1-384 (mouse entry))
T2 construct: Full-length JNK1 single point mutant; two-hybrid prey; also called L131R; L131→R131

[3] = molecular target: T3, JNK1 point mutant Arg-309-Trp, fused to the B42 activation domain (pJG4-5) (human, UniProt Q91Y86 1-384 (mouse entry))
T3 construct: Full-length JNK1 single point mutant; two-hybrid prey; also called R309W; R309→W309

Measured: binding result

B1: TI-JIP (Truncated Inhibitor of JNK based on JIP) fused to the LexA DNA-binding domain, from pGILDA-TI-JIP (peptide)
chain: MKALTARQQEVFDLIRDHISQTGMPPTRAEIAQRLGFRSPNAAEEHLKALARKGVIEIVSGASRGIRLLQEEEEGLPLVGRVAAGEPLLAQQHIEGHYQVDPSLFKPNADFLLRVSGMSMKDIGIMDGDLLAVHKTQDVRNGQVVVARIDDEVTVKRLKKQGNKVELLPENSEFKPIVVDLRQQSFTIEGLAVGVIRNGDWLRPKRPTTLNLF
notes: 11-residue peptide expressed in yeast as a C-terminal fusion with LexA (two-hybrid bait); also called bait
no binding: all assays above
